{"source": "patent US5650488A", "about": "“Polypeptide inhibitor of the replication of HSV” (British Technology Group Limited, priority 1991, dated 1997)", "target": "T1, TRF/Vmw 65/CFF complex (Homo sapiens, UniProt P51610)", "T1 construct": "A nuclear extract of HeLa cells was prepared; from tissue; host or cells: HeLa cell nuclear extract (TRF, CFF)", "T1 sequence (P51610 whole entry, one chain of several)": "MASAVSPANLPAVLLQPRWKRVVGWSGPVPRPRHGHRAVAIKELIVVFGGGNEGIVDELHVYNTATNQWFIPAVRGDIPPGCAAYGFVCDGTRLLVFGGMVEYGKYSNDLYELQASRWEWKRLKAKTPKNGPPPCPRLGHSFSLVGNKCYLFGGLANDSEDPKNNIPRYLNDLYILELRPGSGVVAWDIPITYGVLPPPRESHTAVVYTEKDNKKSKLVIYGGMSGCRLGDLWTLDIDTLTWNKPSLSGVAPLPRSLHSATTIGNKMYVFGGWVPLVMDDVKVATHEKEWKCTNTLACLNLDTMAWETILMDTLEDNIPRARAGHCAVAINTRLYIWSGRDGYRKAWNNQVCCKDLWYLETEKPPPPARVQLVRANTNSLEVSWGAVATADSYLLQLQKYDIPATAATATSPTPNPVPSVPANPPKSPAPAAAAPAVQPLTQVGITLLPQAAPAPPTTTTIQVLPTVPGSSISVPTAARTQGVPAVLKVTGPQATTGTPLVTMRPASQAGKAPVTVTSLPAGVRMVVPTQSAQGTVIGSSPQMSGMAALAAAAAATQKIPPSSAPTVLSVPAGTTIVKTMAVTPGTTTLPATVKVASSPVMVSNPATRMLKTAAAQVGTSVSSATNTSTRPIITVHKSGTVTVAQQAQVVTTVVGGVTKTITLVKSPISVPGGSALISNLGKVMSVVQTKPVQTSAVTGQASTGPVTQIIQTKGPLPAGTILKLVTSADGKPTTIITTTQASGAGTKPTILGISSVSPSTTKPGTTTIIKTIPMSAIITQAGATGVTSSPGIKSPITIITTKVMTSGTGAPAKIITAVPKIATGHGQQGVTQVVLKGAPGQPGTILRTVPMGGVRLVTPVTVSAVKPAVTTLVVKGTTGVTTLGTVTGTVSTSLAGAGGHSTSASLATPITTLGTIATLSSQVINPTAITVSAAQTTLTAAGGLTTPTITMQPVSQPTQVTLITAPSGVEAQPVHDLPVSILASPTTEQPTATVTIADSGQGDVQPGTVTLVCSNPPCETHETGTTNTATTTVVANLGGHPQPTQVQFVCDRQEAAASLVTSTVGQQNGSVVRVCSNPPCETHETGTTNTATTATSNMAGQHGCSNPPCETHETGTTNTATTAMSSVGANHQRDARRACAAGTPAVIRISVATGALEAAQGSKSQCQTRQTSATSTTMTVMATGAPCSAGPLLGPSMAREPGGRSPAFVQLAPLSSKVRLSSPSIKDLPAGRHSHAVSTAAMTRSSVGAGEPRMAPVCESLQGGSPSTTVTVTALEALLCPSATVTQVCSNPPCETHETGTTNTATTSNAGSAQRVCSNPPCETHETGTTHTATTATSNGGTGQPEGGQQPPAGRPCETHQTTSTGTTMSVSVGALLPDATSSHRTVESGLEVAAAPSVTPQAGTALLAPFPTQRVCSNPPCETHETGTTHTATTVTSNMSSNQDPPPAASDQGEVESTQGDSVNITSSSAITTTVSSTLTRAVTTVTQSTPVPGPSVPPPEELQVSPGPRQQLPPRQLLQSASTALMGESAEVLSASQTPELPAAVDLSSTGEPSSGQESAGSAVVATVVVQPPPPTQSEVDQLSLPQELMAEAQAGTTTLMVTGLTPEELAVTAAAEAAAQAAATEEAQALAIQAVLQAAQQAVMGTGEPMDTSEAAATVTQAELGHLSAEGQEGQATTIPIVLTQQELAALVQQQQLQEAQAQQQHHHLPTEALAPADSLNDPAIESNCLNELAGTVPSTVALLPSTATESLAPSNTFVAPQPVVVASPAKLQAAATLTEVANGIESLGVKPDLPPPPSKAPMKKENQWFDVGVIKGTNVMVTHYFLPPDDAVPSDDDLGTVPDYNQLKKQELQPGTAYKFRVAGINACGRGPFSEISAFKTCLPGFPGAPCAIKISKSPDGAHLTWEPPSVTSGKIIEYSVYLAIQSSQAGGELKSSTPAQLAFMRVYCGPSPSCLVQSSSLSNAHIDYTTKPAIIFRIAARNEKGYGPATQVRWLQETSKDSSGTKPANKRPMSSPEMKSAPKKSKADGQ", "experiment": "Peptide inhibition of quaternary complex assembly (gel retardation with HeLa nuclear extract, purified Vmw 65 and 32P-labelled TAATGARAT probe)", "format": "biochemical, HSV-1", "set-up": "key to Level of Inhibition: \"+++\" indicates a high level inhibition of complex formation; \"++\" indicates a lower level and so on; \"-\" indicates no inhibition of complex formation", "protocol": "A nuclear extract of HeLa cells was prepared exactly as described by Dignam et al., Nucl. Acids. Res. 11 1475-1489, (1983) (This is a standard protocol for the preparation of extracts containing cellular DNA binding proteins). Polypeptides from Vmw 65 amino acids were synthesised by Cambridge Research Biochemicals Ltd., Cambridge, UK, under contract, in accordance with the sequence set forth above. 1 μl volumes of phosphate buffered saline containing increasing amounts (100 ng, 500 ng, 1 μg, 2.5 μg, 5μg) of the polypeptide (amino acids 360-367) was added to a standard amount of HeLa cell nuclear extract (1 μl extract per 2 μg polypeptide). After incubation at 20° C. for 30 minutes a 1 μl sample of Vmw 65 protein, purified as described by P. O'Hare et al., EMBO J. 7: 4231-4238 (1988) was added to the extract polypeptide mixtures and incubation continued for a further 5 minutes in a buffer containing 25 mM HEPES pH 7.9, 1 mM EDTA, 5 mM DTT, 100 mM KCl, 0.05% NP40 10% glycerol, and 2 μg of salmon sperm DNA. A ^32 P radioactively labelled probe present in excess and encompassing nucleotides -171 to -149 (numbered starting upstream of the site of mRNA transcription: the TAATGARAT sequence is at -162 to -154) of the immediate-early IE110K gene of HSV-1 was then added and incubation continued for a further 25 minutes. […]"}
{"substance": "355-367: polypeptide of region 355-367 of Vmw 65; 360-367 inhibitory region with 355-359 flanking stabilizing region", "values": [{"measurement": "Level of Inhibition", "setting": "inhibition of complex formation, experiment of Example 1 repeated with various Vmw-65 polypeptides", "result": "+++"}, {"measurement": "inhibiting complex formation (result in words)", "setting": "summary of the Table", "result": "effective"}]}
